Measurements from the DeepSol protein solubility set.

Experiment: soluble on expression in E. coli; label from the status in PepcDB or PDB records

Q: Which “soluble on expression in E. coli” value does the source give for “MKVERGDVIRLHYTGRVKETGQIFDTTYEEVAKEAGIYNPKGIYGPVPIIVGAGHVISGLDKRLVGLEVGKKYTLEVPPEEGFGLRDPKLIKVFTMGQFRKQGIVPFPGLEVEVTTDNGRKMKGRVITVSGGRVRVDFNHPLAGKTLIYEVEIVEKIEDPIEKIKALIELRLPMIDRDKVIIEVGEKDVKVNFGEQDVDPKTLILGEILLESDIKFLGYEKVEFKPSVEELLRPKQEEPVEEEKKEEQEESEEAQSS” here?
A: Its value is “soluble”.

Q: Which “soluble on expression in E. coli” value does the source give for “MARMKFLCDTKRCIECNGCVTACKNENDDALEWGIQRRRVVTLNDGEPGENSISVACMHCTDAPCMAVCPADCFVHTEDGIVLHNKDLCIGCGYCLFACPFGAPQFPKQAAFGERGKMDKCTFCAGGPETEPGSEEERRKYGANRIAEGKLPMCASLCSTKALLAGDAEKISDIFRQRVVERGAKGAGWTNGEDLAYDATRS” here?
A: Its value is “not soluble”.

Q: Which “soluble on expression in E. coli” value does the source give for “MSLTNNNHRLISNSFSTYSIDTSRAYENYLTHWTEWKNNRIQEEQRDIAFQRLVSCLQNQETNLDLSELGLTTLPEIPPGIKSINISKNNLSLIPPLPASLTQLNVSYNRLIELPALPQGLKLLNASHNQLITLPTLPISLKELHVSNNQLCSLPVLPELLETLDVSCNGLAVLPPLPFSLQEISAIGNLLSELPPLPHNIHSIWAIDNMLTDIPYLPENLRNGYFDINQISHIPESILNLRNECSIDISDNPLSSHALQSLQRLTSSPDYHGPQIYFSMSDGQQNTLHRPLADAVTAWFPENKQSDVSQIWHAFEHEEHANTFSAFLDRLSDTVSARNTSGFREQVAAWLEKLSASAELRQQSFAVAADATESCEDRVALTWNNLRKTLLVHQASEGLFDNDTGALLSLGREMFRLEILEDIARDKVRTLHFVDEIEVYLAFQTMLAEKLQLSTAVKEMRFYGVSGVTANDLRTAEAMVRSREENEFTDWFSLWGPWHAVLKRTEADRWALAEEQKYEMLENEYPQRVADRLKASGLSGDADAEREAGAQVMRETEQQIYRQLTDEVLALRLPENGSQLHHSEGHHHHHH” here?
A: The value was “soluble”.

Q: For “GQYTFSMPSDSHVSSCSEDWVGYQRKCYFISTVKRSWTSAQNACSEHGATLAVIDSEKDMNFLKRYAGREEHWVGLKKEPGHPWKWSNGKEFNNWFNVTGSDKCVFLKNTEVSSMECEKNLYWICNKPYK”, which “soluble on expression in E. coli” value is on record?
A: The value was “soluble”.

Q: Which “soluble on expression in E. coli” value does the source give for “MGSDKIHHHHHHMSRRQHFAKVTPLLHRHGDYFVFIGFDYGTANCSVAVMRDGKPHLLKMENDSTLLPSMLCAPTREAVSEWLYRHHDVPADDDETQALLRRAIRYNREEDIDVTAKSVQFGLSSLAQYIDDPEEVWFVKSPKSFLGASGLKPQQVALFEDLVCAMMLHIRQQAQAQLPEAITQAVIGRPINFQGLGGDEANTQAQGILERAAKRAGFRDVVFQYEPVAAGLDYEATLQEEKRVLVVDIGGGTTDCSLLLMGPQWRSRLDREASLLGHSGCRIGGNDLDIALAFKNLMPLLGMGGETEKGIALPILPWWNAVAINDVPAQSDFYSSANGRLLNDLVRDAREPEKVALLQKVWRQRLSYRLVRSAEECKIALSSVAETRASLPFISNELATLISQRGLESALSQPLTRILEQVQLALDNAQEKPDVIYLTGGSARSPLIKKALAEQLPGIPIAGGDDFGSVTAGLARWAEVVFR” here?
A: The value was “not soluble”.

Q: With “MGHPPLLPLLLLLHTCVPASWGLRCMQCKTNGDCRVEECALGQDLCRTTIVRLWEEGEELELVEKSCTHSEKTNRTLSYRTGLKITSLTEVVCGLDLCNQGNSGRAVTYSRSRYLECISCGSSDMSCERGRHQSLQCRSPEEQCLDVVTHWIQEGEEGRPKDDRHLRGCGYLPGCPGSNGFHNNDTFHFLKCCNTTKCNEGPILELENLPQNGRQCYSCKGNSTHGCSSEETFLIDCRGPMNQCLVATGTHEPKNQSYMVRGCATASMCQHAHLGDAFSMNHIDVSCCTKSGCNHPDLDVQYRSGAAPQPGPAHLSLTITLLMTARLWGGTLLWT” as the sequence, how does the “soluble on expression in E. coli” value read?
A: The value was “not soluble”.

Q: Which “soluble on expression in E. coli” value does the source give for “RSARPPGPRVSRARCLPGLIAEQLLQQAARGQDRQQQLQRDPQKALCDLHPSWKEIQALQCRPGHPPEQPWETSQMPESQVKGSRRPKFHARPEDYAVSQPNRDIQEKREASLEESPVALGESASVPQVSETVPASQPLSKKTSSQSNSSSEGSMWATVPSSPTLDRDTASEVDDLEPDSVSLALEMGGSAAPAAPKLKIFMAQYNYNPFEGPNDHPEGELPLTAGDYIYIFGDMDEDGFYEGELDDGRRGLVPSNFVEQIPDSYIPGCLPAKSPDLGPSQLPAGQDEALEEDSLLSGKAQGVVDRGLCQMVRVGSKTEVATEILDTKTEACQLGLLQSMGKQGLSRPLLGTKGVLRMAPMQLHLQNVTATSANITWVYSSHRHPHVVYLDDREHALTPAGVSCYTFQGLCPGTHYRARVEVRLPRDLLQVYWGTMSSTVTFDTLLAGPPYPPLDVLVERHASPGVLVVSWLPVTIDSAGSSNGVQVTGYAVYADGLKVCEVADATAGSTLLEFSQLQVPLTWQKVSVRTMSLCGESLDSVPAQIPEDFFMCHRWPETPPFSYTCGDPSTYRVTFPVCPQKLSLAPPSAKASPHNPGSCGEPQAKFLEAFFEEPPRRQSPVSNLGSEGECPSSGAGSQAQELAEAWEGCRKDLLFQKSPQNHRPPSVSDQPGEKENCSQHMGTSKSPAPGFIHLRTECGPRKEPCQEKAALERVLRQKQDAQGFTPPQLGASQQYASDFHNVLKEEQEALCLDLWGTERREERREPEPHSRQGQALGVKRGCQLHEPSSALCPAPSAKVIKMPRGGPQQLGTGANTPARVFVALSDYNPLVMSANLKAAEEELVFQKKQLLRVWGSQDTHDFYLSECNRQVGNIPGCLVAEMEVGTEQTDRRWRSPAQGHLPSVAHLEDFQGLTIPQGSSLVLQGNSKRLPLWTPKIMIAALDYDPGDGQMGGQGKGRLALRAGDVVMVYGPMDDQGFYYGELGGHRGLVPAHLLDHMSLHGH” here?
A: Its value is “soluble”.

Q: For MSLSVIDLLKQRVQSAGKKPVIIFPEG, which “soluble on expression in E. coli” value is on record?
A: The value was “not soluble”.

Q: Which “soluble on expression in E. coli” value does the source give for “GSHMRRYIGVMMLTLSPSILAELQLREPSFPDVQHGVLIHKVILGSPAHRAGLRPGDVILAIGEQMVQNAEDVYEAVRTQSQLAVQIRRGRETLTLYVTPEVTEGGGWTMFWV” here?
A: The value was “soluble”.

Q: For “MGSDKIHHHHHHMTRYKLSAEVSFSKPSEIMGRLYILPYRDNAQKVLHFNIDHPSFCKVSINQDRFRNEHLDFKCNPSDDFSIIISYEVEVNSFSKSENEEEVFLSSSKYVNVDKFKMINVRYFSFDDLIDEVISMVRDSIRYDKNNKSVKSAFGSLIMGSGVCVNYSHVAIGILRALGIPARYVIGLIPFSTKEAHAWIEVKIGDVWFPVDPTNGIKGMQYLKWAIGRDDNDVRSKIWYSKPVSFDFSFDWNFR”, which “soluble on expression in E. coli” value is on record?
A: The value was “not soluble”.

Q: For “METKWRNGDIVQPVLNPEPNTVSYSQSSLIHLVGPSDCTLHGFVHGGVTMKLMDEVAGIVAARHCKTNIVTASVDAINFHDKIRKGCVITISGRMTFTSNKSMEIEVLVDADPVVDNSQKRYRAASAFFTYVSLNQEGKPMPVPQLVPETEDEKKRFEEGKGRYLQMKAKRQGHTEPQP”, which “soluble on expression in E. coli” value is on record?
A: The value was “soluble”.

Q: For “MGSDKIHHHHHHMLEQQATIVDVNESNLNQVLEHSATLPVLFYFWSARSQHCVELEPVLDKLAQEYAGQFVLAKVDCDAEQRVAAQFGLRSIPTVYLFKDGQPLDGFQGPQPEEAVRELLKRALPKEEELKVAQAQQLIQEDKLPEAMQLLKDAWQLSQQRSDIGLMLAEVQIQIKRSEDAEAVLAAIPLQDQDTRYHSLVAQIELLKQAADTPEIQHLQQQLDADPQNADLAVQLALQLHQVSRNEEALELLMGFLKKDLAVANGSARKTLMDIMAALGTSDALAARYRRQLYSLLY”, which “soluble on expression in E. coli” value is on record?
A: The value was “not soluble”.

Q: With “MAAEDELQLPRLPELFETGRQLLDEVEVATEPAGSRIVQEKVFKGLDLLEKAAEMLSQLDLFSRNEDLEEIASTDLKYLLVPAFQGALTMKQVNPSKRLDHLQRAREHFINYLTQCHCYHVAEFELPKTMNNSAENHTANSSMAYPSLVAMASQRQAKIQRYKQKKELEHRLSAMKSAVESGQADDERVREYYLLHLQRWIDISLEEIESIDQEIKILRERDSSREASTSNSSRQERPPVKPFILTRNMAQAKVFGAGYPSLPTMTVSDWYEQHRKYGALPDQGIAKAAPEEFRKAAQQQEEQEEKEEEDDEQTLHRAREWDDWKDTHPRGYGNRQNMGAAAAAALEHHHHHH” as the sequence, how does the “soluble on expression in E. coli” value read?
A: Its value is “not soluble”.

Q: For “MELDVFVGNTTVLDEDIYQLWLDGHSVSDVVRQRMDAGVLLECEASPDVLQSDTIDQFRTFQMCERLLQSPSKVANQLLFQIPSDQQAMLIERYYEFDSVFAREVLGKKLSKGTKKDLDDVSAKTGIALKSCRRQFDNFKRVFKVVEELKGPLVENIQRHFLLSDDLARDYATIVFFANSRFETGKRKLQYLSFQDFAFCAGQLISYWTVGAVDNMIEDMDVDLEKDFLHDLKDLKVLVNDKDLLDQHKSLVCGQLRGKIKVFNEMEASFKNLSRALVNIASKLTHAKDVRDLFIDLVEKFIEPCRSDKWTSGDLRLFLTHYSTSVHTLEAFRHQVIWDRYMGVIKSCILKMYHD”, which “soluble on expression in E. coli” value is on record?
A: The value was “soluble”.

Q: For “MPGSDAGPRRRGVHEQRRNRMSNEAKCPFHQAAQNGTSNRDWWPNQLDLSILHRHSSLSDPMGKDFNYAQAFEKLDLAAVKRDLHALMTTSQDWWPADFGHYGGLFIRMAWHSAGTYRTADGRGGAGEGQQRFAPLNSWPDNANLDKARRLLWPIKQKYGRAISWADLLILTGNVALESMGFKTFGFAGGRADTWEPEDVYWGSEKIWLELSGGPNSRYSGDRQLENPLAAVQMGLIYVNPEGPDGNPDPVAAARDIRDTFARMAMNDEETVALIAGGHTFGKTHGAGPASNVGAEPEAAGIEAQGLGWKSAYRTGKGADAITTGLEVTWTTTPTQWSHNFFENLFGYEWELTKSPAGAHQWVAKGADAVIPDAFDPSKKHRPTMLTTDLSLRFDPAYEKISRRFHENPEQFADAFARAWFKLTHRDMGPRARYLGPEVPAEVLLWQDPIPAVDHPLIDAADAAELKAKVLASGLTVSQLVSTAWAAASTFRGSDKRGGANGARIRLAPQKDWEANQPEQLAAVLETLEAIRTAFNGAQRGGKQVSLADLIVLAGCAGVEQAAKNAGHAVTVPFAPGRADASQEQTDVESMAVLEPVADGFRNYLKGKYRVPAEVLLVDKAQLLTLSAPEMTVLLGGLRVLGANVGQSRHGVFTAREQALTNDFFVNLLDMGTEWKPTAADADVFEGRDRATGELKWTGTRVDLVFGSHSQLRALAEVYGSADAQEKFVRDFVAVWNKVMNLDRFDLA”, which “soluble on expression in E. coli” value is on record?
A: Its value is “soluble”.

Q: For “MGSDKIHHHHHHVDPVVLLTSVSALTQTQKPCRGRRNARDRIPTCSQETLEGKALALRVAVVGGGPAGSCAAETLVKAGIETYLIERKLDNAKPCGGAIPLCMVSEFDLPAEIIDRRVRNMKMISPSNREVNINLDNADEYIGMTRREVLDGFLRDRAAKLGTKLINGTLFRLELPKGDRDPYVLHYADHSNGSLEGIPSTLEVDVVIGADGANSRIAKAIDAGDYNYAIAFQERIRLPEDKMHYYENLAEMYVGGDVSPDFYAWVFPKYDHVAVGTGTMHVNQRLIKKLQAGIRARAANRLEGGKIIKVEAHPIPEHPRPRRVVGRAALVGDAAGYVTKSSGEGIYFAAKSGRMCAETIVETSNNGARIPTEADLKQYLRRWDKKYGTTYKVLDLLQTVFYRSDATREAFVEMCDDKDVQRLTFDSYLYKTVVPANPLVQLKITAKTLGSLLRGNALAPAEYKPIDAA”, which “soluble on expression in E. coli” value is on record?
A: The value was “not soluble”.

Q: For “MSKPIEIEIRRAPVLGSSMAYRETGAQDAPVVLFLHGNPTSSHIWRNILPLVSPVAHCIAPDLIGFGQSGKPDIAYRFFDHVRYLDAFIEQRGVTSAYLVAQDWGTALAFHLAARRPDFVRGLAFMEFIRPMPTWQDFHHTEVAEEQDHAEAARAVFRKFRTPGEGEAMILEANAFVERVLPGGIVRKLGDEEMAPYRTPFPTPESRRPVLAFPRELPIAGEPADVYEALQSAHAALAASSYPKLLFTGEPGALVSPEFAERFAASLTRCALIRLGAGLHYLQEDHADAIGRSVAGWIAGIEAVRPQLAAVD”, which “soluble on expression in E. coli” value is on record?
A: Its value is “soluble”.
